What is called Kd is the free concentration of one partner at which half of the binding sites on the other are occupied at equilibrium, for simple one-to-one binding. In general, stoichiometry N refers to a count of units in the complex or per binding partner.

First the molecules themselves.
B1: KaiC-EA K224A (natural protein)
chain: MTSAEMTSPNNNSEHQAIAKMRTMIEGFDDISHGGLPIGRSTLVSGTSGTGKTLFSIQFLYNGIIEFDEPGVFVTFEETPQDIIKNARSFGWDLAKLVDEGKLFILDASPDPEGQEVVGGFDLSALIERINYAIQKYRARRVSIDSVTSVFQQYDASSVVRRELFRLVARLKQIGATTVMTTERIEEYGPIARYGVEEFVSDNVVILRNVLEGERRRRTLEILALRGTSHMKGEYPFTITDHGINIFPLGAMRLTQRSSNVRVSSGVVRLDEMCGGGFFKDSIILATGATGTGKTLLVSRFVENACANKERAILFAYEESRAQLLRNAYSWGMDFEEMERQNLLKIVCAYPESAGLEDHLQIIKSEINDFKPARIAIDSLSALARGVSNNAFRQFVIGVTGYAKQEEITGLFTNTSDQFMGAHSITDSHIEAITDTIILLQYVEIRGEMSRAINVFKMRGSWHDKAIREFMISDKGPDIKDSFRNFERIISGSPTRITVDEKSELSRIVRGVQEKGPES
B2: daytime KaiC-K457A (natural protein)
chain: B1 chain with A224K, E431A, A432E, K457A
B3: nighttime KaiC I430G (natural protein)
chain: B1 chain with A224K, I430G
B4: KaiC-S431E-T432A (natural protein, Synechococcus elongatus)
chain: B1 chain with A224K
B5: KaiC-S431A-T432E (natural protein, Synechococcus elongatus)
chain: B1 chain with A224K, E431A, A432E
B6: nighttime KaiC H230A (natural protein)
chain: B1 chain with A224K, H230A
B7: nighttime KaiC R217A (natural protein)
chain: B1 chain with R217A, A224K
B8: nighttime KaiC-K457A (natural protein)
chain: B1 chain with A224K, K457A
B9: nighttime KaiC R226A (natural protein)
chain: B1 chain with A224K, R226A
B10: nighttime KaiC R216A (natural protein)
chain: B1 chain with R216A, A224K
B11: KaiB-I87A (natural protein, Synechococcus elongatus, UniProt Q79PF5 1-102, looked up)
chain: MSPRKTYILKLYVAGNTPNSVRALKTLKNILEVEFQGVYALKVIDVLKNPQLAEEDKILATPTLAKVLPLPVRRIIGDLSDREKVLAGLDLLYGELQDSDDF

The target of data set [1] is fluorescently labeled KaiB (Synechococcus elongatus) (UniProt Q79PF5). Briefly: fluorescence polarisation. A general note: Fluorescence polarisation rises when a labelled molecule tumbles more slowly, as on binding a larger partner.
Data set [2] deals with the molecule itself. Briefly: cryo-EM structure.
Data set [3] deals with the molecule itself. Briefly: cryo-EM structure. This is another data set of the same source.
Data set [4] addresses B4. Briefly: fluorescence polarisation.

Numbering of substitutions follows the chain as printed. Numbers in names are those of the source. Read-outs that look alike come from different tables or passages of the source.

B1 had a Kd in data set [1] of 4.6 µM.

B2: the Kd in data set [1] was 7.3 µM. On the same count and under the same terms, in the case of B3 it was above 25 µM. Turning to B4, the “stoichiometry N” value in data set [2] was found to be 6. B5 yielded a Kd in data set [1] above 43 µM. Also, the “stoichiometry N” value in data set [3] came to 6. In turn, B6 showed a Kd in data set [1] of 5.9 µM. In data set [1], B7 displayed a KaiB cooperativity index (fsKaiB as secondary titrant) of 1.6 and a Kd above 13 µM.

In data set [1], B8 yielded a Kd of 4.6 µM. Take B9: the Kd in data set [1] is above 38 µM.

In turn, B10 registered a Kd in data set [1] above 25 µM. In the case of B11, the binding result in data set [4] is “binds”.
